Source: patent publication US20230340152A1 (published 2023)
Changes are numbered by the printed parent chain. In names and notes the source's numbering stands.

Key:
Test in all cases: SPR (ProteOn), CD73 variant immobilized on HTG chip
KO_Linker CD73 chimera = molecular target: T1, KO_Linker CD73 chimera (human; chicken, UniProt P21589 27-553)
T1 construct: also called KO_292-310; linker region-swapped CD73
T1 chain: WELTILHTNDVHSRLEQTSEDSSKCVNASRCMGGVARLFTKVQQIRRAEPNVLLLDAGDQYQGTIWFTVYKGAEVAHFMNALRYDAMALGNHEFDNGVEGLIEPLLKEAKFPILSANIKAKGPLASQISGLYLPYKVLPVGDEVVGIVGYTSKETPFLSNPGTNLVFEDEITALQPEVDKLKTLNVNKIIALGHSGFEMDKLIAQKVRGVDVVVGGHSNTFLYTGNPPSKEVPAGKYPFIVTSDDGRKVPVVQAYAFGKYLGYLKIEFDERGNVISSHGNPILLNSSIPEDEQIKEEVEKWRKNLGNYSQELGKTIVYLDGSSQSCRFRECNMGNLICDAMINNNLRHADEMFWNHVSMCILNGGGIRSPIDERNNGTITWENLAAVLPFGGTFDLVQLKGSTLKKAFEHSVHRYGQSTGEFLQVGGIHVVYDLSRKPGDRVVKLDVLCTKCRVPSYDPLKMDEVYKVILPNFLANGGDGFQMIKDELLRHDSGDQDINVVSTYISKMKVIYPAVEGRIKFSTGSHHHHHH
Description: (§1) Binding of MEDI9447 to wild-type and mutant CD73 proteins was measured by surface plasmon resonance (SPR) using a ProteOn instrument (BioRad). CD73 crude cell supernatant protein samples were diluted to 3 µg/ml in PBS, 0.005% Tween-20, pH 7.4 (BioRad) and immobilized to ~400 RU on a HTG tris-NTA sensor chip (BioRad) pre-activated with 10 mM NiSO₄, 10 mM MES, pH 6.0 (BioRad). An equivalently diluted crude cell supernatant sample from non-transfected cells was included as a reference channel control. Sensorgrams were recorded by flowing two-fold dilutions of MEDI9447 prepared in PBS, 0.005% Tween-20, pH 7.4, ranging from 5 nM to 0.31 nM. […] Antibody binding was measured at a flow rate of 100 µL/min with a 3 min association phase and 20 min dissociation phase. The sensor chip surface was regenerated between each run by an 800 s injection of 300 mM EDTA, pH 8.5 (BioRad) at a flow rate of 30 µL/min. Binding kinetics were analyzed using the ProteOn data analysis software. Double referencing was performed and, unless noted otherwise, a 1:1 Langmuir binding model was utilized to fit the data. Some CD73 variants containing mutations within the amino acid region 171-188 fit poorly to a 1:1 model (i.e., Chi² values >10% of Rmax). Where noted, these variants were fit with a heterogenous antigen (2:1) model. […] Due to the assay format (antigen immobilized) and the dimeric state of CD73, KD values may be exaggerated due to avidity effects. However, it is not anticipated that this impacts ranking of MEDI9447 binding to the different CD73 variants.

[1] = molecular target: T2, Human CD73 V144K, His-tagged (human, UniProt P21589 27-549)
T2 sequence: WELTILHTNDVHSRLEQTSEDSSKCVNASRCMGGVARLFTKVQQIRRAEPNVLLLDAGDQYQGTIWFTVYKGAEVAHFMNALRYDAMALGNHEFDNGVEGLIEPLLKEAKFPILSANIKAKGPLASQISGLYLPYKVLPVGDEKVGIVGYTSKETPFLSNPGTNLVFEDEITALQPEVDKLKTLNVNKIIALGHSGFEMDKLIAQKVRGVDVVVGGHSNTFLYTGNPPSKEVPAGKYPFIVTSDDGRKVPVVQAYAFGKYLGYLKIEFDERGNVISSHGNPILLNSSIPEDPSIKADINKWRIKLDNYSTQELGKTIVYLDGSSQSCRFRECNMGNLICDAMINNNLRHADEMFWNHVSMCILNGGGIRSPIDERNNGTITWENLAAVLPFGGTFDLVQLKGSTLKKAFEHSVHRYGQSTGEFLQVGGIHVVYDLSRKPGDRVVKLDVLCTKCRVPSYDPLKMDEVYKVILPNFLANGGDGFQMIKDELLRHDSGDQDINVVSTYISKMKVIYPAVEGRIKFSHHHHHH
Description: as §1

[2] = molecular target: T3, Human CD73 K180A, His-tagged (human, UniProt P21589 27-549)
T3 sequence: T2 sequence with K144V, K180A
Description: as §1

B1: MEDI9447 (antibody, human IgG1, lambda, V domains shown)
VH: EVQLLESGGGLVQPGGSLRLSCAASGFTFSSYAYSWVRQAPGKGLEWVSAISGSGGRTYYADSVKGRFTISRDNSKNTLYLQMNSLRAEDTAVYYCARLGYGRVDEWGRGTLVTVSS
VL: QSVLTQPPSASGTPGQRVTISCSGSLSNIGRNPVNWYQQLPGTAPKLLIYLDNLRLSGVPDRFSGSKSGTSASLAISGLQSEDEADYYCATWDDSHPGWTFGGGTKLTVLG
notes: Human IgG1-TM (L234F, L235E, P331S), lambda light chain; also called clone 10.3 antibody; 73combo3
Binder B1 has a Kd (KO_Linker CD73 chimera) of 4.14 pM, a koff (KO_Linker CD73 chimera) of 2.31e-05 s⁻¹ and a kon (KO_Linker CD73 chimera) of 5.7e+06 M⁻¹ s⁻¹. It also gave a koff [1] of 9.18e-05 s⁻¹, a kon [1] of 1.13e+06 M⁻¹ s⁻¹ and a koff [2] of 0.000154 s⁻¹. It also gave a kon [2] of 3.45e+06 M⁻¹ s⁻¹.
